Laboratory results: paper PMC5841360 (2018)

B1: his6-cortactin, wild type (purified) [not stated] / GST-GluA2 C-terminal tail [not stated] (parent complex)
chain 1: not shown
chain 2: EFCYKSRAEAKRMKVAKNPQNINPSSSQNSQNFATYKEGYNVYGIESVKI

Variants of: B1
Assay: GST pulldown, Western blot quantification; Input is 0.2% of offered protein; n = 3-6; read off a plot

Row | Variant | percent of parent
1 | chain 2 K17A, chain 2 N18A | ~76
2 | chain 2 K11A | ~22
3 | chain 2 R12A, chain 2 M13A | ~55
4 | chain 2 K14A, chain 2 V15A | ~37
5 | chain 2 P19A, chain 2 Q20A | ~83
